Measured values taken from patent publication US20240383999A1 (University of Texas, published 2024).

T1: Human recombinant CD5L protein (Sino Biological, Catalog Number 10791-H08H) (human, UniProt O43866 20-347)
T1 construct: Bought protein; also called human CD5L; CD5L-His; not shown: 6xHIS-tag
T1 sequence (looked up): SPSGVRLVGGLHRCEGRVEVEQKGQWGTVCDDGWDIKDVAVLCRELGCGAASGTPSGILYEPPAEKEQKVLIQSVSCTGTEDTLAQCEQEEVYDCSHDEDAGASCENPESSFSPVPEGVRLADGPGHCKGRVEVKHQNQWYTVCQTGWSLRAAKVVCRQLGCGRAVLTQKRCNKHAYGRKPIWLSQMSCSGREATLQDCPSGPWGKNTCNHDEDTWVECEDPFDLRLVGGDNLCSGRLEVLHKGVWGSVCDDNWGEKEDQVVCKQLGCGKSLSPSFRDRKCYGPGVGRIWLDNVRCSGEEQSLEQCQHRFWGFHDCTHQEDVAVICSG

B1: R-1 (antibody, V domains shown)
VH: QSVEESGGRLVTPGTPLTLTCTVSGIDLSNYAINWVRQAPGKGLEWIGMISSGDVTYYASWAKGRFIISRTSSTTVDLKMTSPTIEDTATYFCARFFAGRSESLWGQGTLVTVSS
VL: ELDLTQTPSSVSAAVGGTVTINCQSSQSVNKNNYLSWYQQKPGQPPKLLIYSASALASGVSSRFSGSGSGTEFTLTISDVQCDDAATYYCQGTYYDSGWYNAFGGGTEVEIK
B2: R-21 (antibody, V domains shown)
VH: QSVEESGGRLVTPGTPLTLTCTVSGIDLSSYAINWVRQAPGEGLEWIGMISSSDNTYYANWAKGRFTISRDSTTVDLKITSPTTEDTATYFCARFYAGRSYSLWGQGTLVTISS
VL: ELDLTQTPASVSAAVGGTVTISCQSSESVYKSNYLSWYQQKAGQPPKLLIYAAATLASGVPSRFKGSGSGTQFTLTISGVQCDDAATYYCQGTYYSSGWYNAFGGGTEVVVK
B3: R-23 (antibody, V domains shown)
VH: QSVEESGGRLVMPGGSLTLTCTVSGIDLSSNTMGWFRQAPGKGLEWIGIMRGGGSTYYATWAKGRFTISKTSTTVDLKLTSPTTEDTATYFCARAFPGYNSFFNFWGQGTLVTISS
VL: ELDLTQTPASVSEPVGGTVTIKCQASHNINSALAWYQQKPGQPPKLLIYKASTLASGVPPRFKGSGSGTEFTLTISDLECADAATYYCQRHYFDGASADIAFGGGTEVVVK
B4: R-29 (antibody, V domains shown)
VH: QSVEESGGRLVTPGTPLTLTCTVSGFSLSSYAMNWVRQAPGKGLEWIGLIYASGTTHYASWVNGRFTISKTSTTVTLKMTSLTAADTATYFCARDSYSTGNLWGQGTLVTISS
VL: ELVLTQTPASVSEPVGGTVTIKCQASQSIYSSLVWYQQKPGQPPKLLIYGASNLESGVPSRFKGSGSGTEYTLTISGVQCADAATYYCQCSGYNSRVFGGGTEVEIK
B5: R-36 (antibody, V domains shown)
VH: QSVKESGGGLFQPGGSLALTCKASGFSLSKNYVMCWVRQAPGKGLEWIACIYAGDGNTYYVSWAKGRFTISKTSSTTVTLQMTSLTAADTATYFCARWDYIGNNNLWGPGTLVTISS
VL: ELVLTQTPASVEAAVGGTVTIKCQASQTISSYLAWYQQKPGQPPKLLIYRASTLASGVPSRFKGSGSGTQFTLTISDLECADGATYYCQCPYYGSSHVGAFGGGTEVVVK
B6: R-39 (antibody, V domains shown)
VH: QSLEESGGRLVTPGGSLTLTCTVSGIDLSSYTMGWVRQAPGKGLEWIGVIAINGGTVYASWAKGRFTISKTSTTVDLKMTSPTPEDTATYFCARGAGKTWSSFNLWGQGTLVTISS
VL: ELVLTQTPASVSEPVGGTVTIKCQASQSIGSNLAWYQQKPGQPPKLLIYRASTLESGVPSRFSGSGSGTEFTLTISDLECADAATYYCQSYYGSSTNAFGGGTEVVVK
B7: R-49 (antibody, V domains shown)
VH: QSVKESGGRLVTPGTPLTLTCTVSGFSLSINAINWVRQAPGKGLEWIGIITNIGNTYYASWAKGRFTISRTSTTVDLTMTSLTTEDTATYFCARNSYFDPWGPGTLVTISS
VL: ELVLTQTPSPVSAAVGGTVSISCQASQSVDSNNYCSWYQQKPGQPPKLLIHKASKLASGVPSRFKGSGSGTQFTLTINDLECDDAATYYCAGGLGDNIYAFGGGTEVEIN
B8: R-51 (antibody, V domains shown)
VH: QSVKESGGRLVTPGTPLTLTCTVSTIDVSKYAVIWVRQAPGKGLEYIGIISSSGSTYYASWAKGRFTISKTSSTTVDLKMTSPTAEDTATYFCARGGNGVAFKLWGQGTLVTISS
VL: ELDLTQTPASVEAAVGGTVTINCQASQSIYSSLAWYQQKPGQPPKLLIYETSKVESGVPSRFSGSGSGTQFTLTISDLECADAATYYCQSHDYISSSGMPFGGGTELEIL
B9: H-119 (antibody, V domains shown)
VH: EVQLVQSGAEVKKPGESLKISCKGSGYSFTSYWIGWVRQMPGKGLEWMGIIYPGDSDTRYSPSFQGQVTISADKSISTAYLQWSSLKASDTAMYYCARGLAASTRFDPWGQGTLVTVSS
VL: DVQMTQSPSSLSASVGDRVTITCRPSQSINNYLNWYQQKPGEAPKLLIYAASNLQSGVPSRFSGSGSGTDFTLTISSLQPEDFGTYYCQQSYSIPLTFGGGTTVEIK

Each binder was assayed against T1, Human recombinant CD5L protein (Sino …) (assay: titration ELISA, human CD5L coated on plate).
Method: FIG. 11. […] Bound antibody was detected using a secondary antibody against rabbit IgG conjugated with HRP and TMB substrate for detection of A450 nm. EC₅₀ was estimated using GraphPad software by applying a 4-parameter fitting to calculate binding affinity of the antibodies.
Binding constants (EC₅₀) of a panel of monoclonal antibodies were estimated by titration ELISA, and the data were analyzed using the 4-parameter curve fitting with GraphPad Prism program (Table 6).

Row | Binder | EC50
1 | B1 | 0.0598 µg/mL
2 | B2 | 0.21 µg/mL
3 | B3 | 0.14 µg/mL
4 | B4 | 0.161 µg/mL
5 | B5 | 0.278 µg/mL
6 | B6 | 0.246 µg/mL
7 | B7 | 0.0077 µg/mL
8 | B8 | 0.0144 µg/mL
9 | B9 | 0.0068 µg/mL
